Assay results from US20170354706A1, “HYBRID PROTEINACEOUS MOLECULE CAPABLE OF INHIBITING AT LEAST ONE ANTIBIOTIC AND PHARMACEUTICAL COMPOSITION CONTAINING IT” (priority 2014, published 2017).
Like-named read-outs stand apart in the source and are kept apart here.

Key:
E. coli BL21(DE3)pLysS [1] = experiment: MICs of beta-lactams on LB-agar for E. coli expression strains (Example 4); format: cell-based, Escherichia coli; conditions: Table 10; for MIC of the antibiotic for the empty strain BL21(DE3)pLysS: no recombinant protein
Experimental: The pre-cultures are then inoculated at 1/40th in 5 ml of LB+50 μg/ml Kanamycin medium and when the OD600 reaches a value of 0.6 (about 2 hours), the production of protein is induced by the addition of final IPTG 1 mM and continues for 1.5 hours at 37° C. with stirring at 200 rpm.
The dishes were incubated at 37° C. overnight and the results were recorded the following day. The MICs correspond to the lowest concentration of antibiotic at which the highest inoculum doesn't grow.

[2] = cited from earlier work
E. coli BL21(DE3)pLysS [3] = experiment: MICs of beta-lactams and macrolide on LB-agar for E. coli expression strains (Example 6); format: cell-based, Escherichia coli; conditions: Table 14
Experimental: The pre-cultures are then inoculated at 1/40th in 5 ml of LB+50 μg/ml Kanamycin medium and when the OD600 nm reaches a value of 0.6 (about 2 hours), the production of protein is induced by the addition of 1 mM final IPTG and continued for 1.5 hours at 37° C. with stirring at 200 rpm.
The dishes are incubated at 37° C. over night and the results are recorded the next day. The MICs correspond to the lowest concentration of antibiotic at which the highest inoculum no longer grows.

[4] = pH-STAT beta-lactam hydrolysis assay, substrate amoxicillin; format: biochemical; conditions: 37° C., pH=7.0
Experimental: (§1) The purified proteins were tested on different beta-lactams (amoxicillin (Apollo Scientific), Augmentin® (GlaxoSmithKline) and Ceftriaxone (Rocéphine®, Roche)). The assays are carried out at pH-STAT (Titrino 2.5, Metrohm) in a reaction volume of 25 ml at 37° C. and pH=7.0. The substrates are prepared at 4 g/l in a 0.3 mM Tris buffer, 150 mM NaCl. The enzyme hydrolysis of the beta-lactam nuclei releases an acid and induces a drop in the pH. The principle of the assay is to compensate for the acidification by the addition of 0.1 N sodium hydroxide so as to remain at pH=7.0. In these conditions, one unit corresponds to 1 μmole of sodium hydroxide added per minute, that is, one μmole of beta-lactam hydrolysed per minute. Table 3 below lists the specific activities measured for each protein on the three substrates (mean of 6 replicates).

[5] = pH-STAT beta-lactam hydrolysis assay, substrate ceftriaxone; format: biochemical; conditions: 37° C., pH=7.0
Experimental: as §1
The purified proteins were tested on different antibiotics: Ceftriaxone (RocéphineED, Roche) for the beta-lactams and kanamycin for the Aminoglycosides. The assays on ceftriaxone were carried out at pH-STAT (Titrino 2.5, Metrohm) in a reaction volume of 25 ml at 37° C. and pH=7.0. The substrates are prepared at 4 g/l in a 0.3 mM Tris buffer, 150 mM NaCl. The enzyme hydrolysis of the beta-lactam nuclei releases an acid and results in a drop in the pH. The principle of the assay is to compensate this acidification by the addition of 0.1 N sodium hydroxide so as to remain at pH=7.0. In these conditions, one unit corresponds to 1 μmol of sodium hydroxide added per minute, that is one μmol of beta-lactam hydrolyzed per minute.

[6] = pH-STAT beta-lactam hydrolysis assay, substrate Augmentin; format: biochemical; conditions: 37° C., pH=7.0
Experimental: as §1

[7] = BL21(DE3)pLysS + protein, IPTG induced, LB-agar, 37° C. overnight
[8] = Table 3, proteins produced in Pichia pastoris, substrate 4 g/l, 1 U = 1 μmole beta-lactam hydrolysed per minute, mean of 6 replicates
[9] = Table 5 (Example 2), proteins produced in Pichia pastoris
[10] = Table 7 (Example 3), proteins produced in Pichia pastoris
[11] = Table 9, proteins produced in Escherichia coli BL21(DE3) pLysS (periplasm, non-glycosylated)
[12] = BL21(DE3)pLysS + protein, IPTG induced, LB-agar, 37° C. over night
[13] = Table 3, proteins produced in Pichia pastoris, substrate 4 g/l, mean of 6 replicates
[14] = Table 9, proteins produced in Escherichia coli BL21(DE3) pLysS

Row | Molecule | MIC of the antibiotic for the empty strain BL21(DE3)pLysS (E. coli BL21(DE3)pLysS [1]) [μg/ml] | Specific activity, substrate Amoxicillin [4, 8] [U/mg] | Specific activity, substrate Amoxicillin [4, 9] [U/mg] | Specific activity, substrate Amoxicillin [4, 10] [U/mg] | Specific activity, substrate Amoxicillin [4, 11] [U/mg] | MIC of Amoxicillin for E. coli strain expressing the protein (E. coli BL21(DE3)pLysS [3]; [12]) [µg/mL] | MIC of Augmentin for E. coli strain expressing the protein (E. coli BL21(DE3)pLysS [3]; [12]) [µg/mL] | Specific activity, substrate Ceftriaxone [5, 13] [U/mg] | Specific activity, substrate Ceftriaxone [5, 9] [U/mg] | Specific activity, substrate Ceftriaxone [5, 10] [U/mg] | Specific activity, substrate Ceftriaxone [5, 14] [U/mg] | Specific activity, substrate Augmentin [6, 13] [U/mg] | Specific activity, substrate Augmentin [6, 9] [U/mg] | Specific activity, substrate Augmentin [6, 10] [U/mg] | Specific activity, substrate Augmentin [6, 14] [U/mg] | also measured
1 | CC1(C)S[C@@H]2[C@H](NC(=O)[C@H](N)c3ccc(O)cc3)C(=O)N2[C@H]1C(=O)O [Amoxicillin, amoxicillin, reference compound] | <0.5 |  |  |  |  |  |  |  |  |  |  |  |  |  |  | Patients with acute diarrhoea induced by antibiotics ([2]; patients receiving antibiotic therapy): 5-10%; MIC of the antibiotic for the empty strain BL21(DE3)pLysS (E. coli BL21(DE3)pLysS [3]; empty strain, no recombinant protein): <2 μg/ml
2 | CO/N=C(\C(=O)N[C@@H]1C(=O)N2C(C(=O)O)=C(CSc3nc(=O)c(O)nn3C)CS[C@H]12)c1csc(N)n1 [Rocephine, Ceftriaxone, reference compound] | <0.5 |  |  |  |  |  |  |  |  |  |  |  |  |  |  | 
3 | CC[C@H]1OC(=O)[C@H](C)[C@@H](O[C@H]2C[C@@](C)(OC)[C@@H](O)[C@H](C)O2)[C@H](C)[C@@H](O[C@@H]2O[C@H](C)C[C@H](N(C)C)[C@H]2O)[C@](C)(O)C[C@@H](C)CN(C)[C@H](C)[C@@H](O)[C@]1(C)O [azithromycin] |  |  |  |  |  |  |  |  |  |  |  |  |  |  |  | Patients with acute diarrhoea induced by antibiotics ([2]; human, in vivo): 2-5%
4 | TEM-36: SEQ ID 1; clavulanic acid-resistant class A β-lactamase (IR-TEM, aminopenicillinase), 263 aa; constituent enzyme (protein, listed as Escherichia coli) HPETLVKVKDAEDQLGARVGYIELDLNSGKILESFRPEERFPMVSTFKVLLCGAVLSRVDAGQEQLGRRIHYSQNDLVEYSPVTEKHLTDGMTVRELCSAAITMSDNTAANLLLTTIGGPKELTAFLHNMGDHVTRLDRWEPELNEAIPNDERDTTMPAAMATTLRKLLTGELLTLASRQQLIDWMEADKVAGPLLRSALPAGWFIADKSGAGERGSRGIIAALGPDGKPSRIVVIYTTGSQATMDERDRQIAEIGASLIKHW |  | 816 ± 90 | 816 ± 90 | 816 ± 90 | 3593 ± 87 | >2048 | 512 | 0 | 0 | 0 | 1 ± 1 | 97 ± 74 | 97 ± 74 | 97 ± 74 | 385 ± 31 | MIC of Amoxicillin for E. coli strain expressing the protein (E. coli BL21(DE3)pLysS [1]; [7]): >1024 µg/mL; MIC of Augmentin for E. coli strain expressing the protein (E. coli BL21(DE3)pLysS [1]; [7]): 512 µg/mL; MIC of Rocephine for E. coli strain expressing the protein (E. coli BL21(DE3)pLysS [1]; [7]): <0.5 µg/mL
5 | EreB: SEQ ID 5; erythromycin esterase, P05789.1, 419 aa (protein, listed as Escherichia coli) MRFEEWVKDKHIPFKLNHPDDNYDDFKPLRKIIGDTRVVALGENSHFIKEFFLLRHTLLRFFIEDLGFTTFAFEFGFAEGQIINNWIHGQGTDDEIGRFLKHFYYPEELKTTFLWLREYNKAAKEKITFLGIDIPRNGGSYLPNMEIVHDFFRTADKEALHIIDDAFNIAKKIDYFSTSQAALNLHELTDSEKCRLTSQLARVKVRLEAMAPIHIEKYGIDKYETILHYANGMIYLDYNIQAMSGFISGGGMQGDMGAKDKYMADSVLWHLKNPQSEQKVIVVAHNAHIQKTPILYDGFLSCLPMGQRLKNAIGDDYMSLGITSYSGHTAALYPEVDTKYGFRVDNFQLQEPNEGSVEKAISGCGVTNSFVFFRNIPEDLQSIPNMIRFDSIYMKAELEKAFDGIFQIEKSSVSEVVYE |  |  |  |  |  | <2 | <2 |  |  |  |  |  |  |  |  | MIC of Erythromycin for E. coli strain expressing the protein (E. coli BL21(DE3)pLysS [3]; [12]): >1024 µg/mL
6 | TEM36-GGGGGG-CTXM16: SEQ ID 8; fusion TEM36 and CTXM16 with flexible 6 glycine linker, 532 aa (protein, TEM36-GGGGGG-CTXM16, fusion TEM36 and CTXM16 with flexible 6 glycine linker, 532 aa) HPETLVKVKDAEDQLGARVGYIELDLNSGKILESFRPEERFPMVSTFKVLLCGAVLSRVDAGQEQLGRRIHYSQNDLVEYSPVTEKHLTDGMTVRELCSAAITMSDNTAANLLLTTIGGPKELTAFLHNMGDHVTRLDRWEPELNEAIPNDERDTTMPAAMATTLRKLLTGELLTLASRQQLIDWMEADKVAGPLLRSALPAGWFIADKSGAGERGSRGIIAALGPDGKPSRIVVIYTTGSQATMDERDRQIAEIGASLIKHWGGGGGGQTSAVQQKLAALEKSSGGRLGVALIDTADNTQVLYRGDERFPMCSTSKVMAAAAVLKQSETQKQLLNQPVEIKPADLVNYNPIAEKHVNGTMTLAELSAAALQYSDNTAMNKLIAQLGGPGGVTAFARAIGDETFRLDRTEPTLNTAIPGDPRDTTTPRAMAQTLRQLTLGHALGETQRAQLVTWLKGNTTGAASIRAGLPTSWTAGDKTGSGGYGTTNDIAVIWPQGRAPLVLVTYFTQPQQNAESRRDVLASAARIIAEGL |  | 695 ± 98 | 890 ± 83 | 890 ± 176 | 633 ± 99 |  |  | 114 ± 44 | 123 ± 35 | 141 ± 55 | 138 ± 32 | 42 ± 33 | 42 ± 14 | 34 ± 6 | 24 ± 5 | 
